The record followed here is article PMC10470053, “Diverse p120RasGAP interactions with doubly phosphorylated partners EphB4, p190RhoGAP, and Dok1” (The Journal of Biological Chemistry, 2023).

Details in all cases: both partners purified
For assay [1], the target named is T1, RasGAP^232 (p120RasGAP SH2-SH3-SH2 region, residues 174-444) (human, C236S (stands in the printed letters) | C261S (stands in the printed letters) | …).
T1 construct: p120RasGAP, human, UniProt P20936, residues 174-444 (N-SH2, SH3, C-SH2) with four cysteine to serine mutations; the methods say that the hexahistidine tag was cut off with TEV, so G-S of the printed stretch probably stay before T174; also called WT RasGAP^232; source: E. coli Rosetta (DE3), purified (Ni-NTA, TEV cleavage, anion exchange, SEC); not shown: His6, N-terminal, cleaved
T1 chain: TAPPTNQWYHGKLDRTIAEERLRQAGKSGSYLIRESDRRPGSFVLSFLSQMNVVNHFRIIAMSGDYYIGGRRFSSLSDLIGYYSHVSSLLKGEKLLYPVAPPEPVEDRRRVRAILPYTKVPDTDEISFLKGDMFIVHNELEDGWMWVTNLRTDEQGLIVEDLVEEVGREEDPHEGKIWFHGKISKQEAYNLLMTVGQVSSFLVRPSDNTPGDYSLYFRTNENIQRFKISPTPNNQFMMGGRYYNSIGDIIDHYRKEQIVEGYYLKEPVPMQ
In words: ITC; RasGAP^232 protein (WT or mutant) in the 190 µl sample cell, peptide in the syringe, 20 injections of 2.5 µl; 20 mM Tris pH 8, 250 mM NaCl; Nano ITC (TA Instruments); blank (constant) and independent models; values of single trials, averages and stdev.

Assay [2] addresses T2, RasGAP^2(mut)32 (RasGAP^232 with R207A in the N-SH2 domain) (human, UniProt P20936 174-444, C236S | C261S | C372S | C402S | R207 to alanine).
T2 construct: p120RasGAP, human, UniProt P20936, residues 174-444; Made by site-directed mutagenesis of RasGAP^232, which holds the four cysteine to serine mutations; also called N-SH2 mutant; source: E. coli Rosetta (DE3), purified (same protocol as the WT counterpart); not shown: His6, N-terminal, cleaved
T2 sequence (looked up): T1 chain with R34A
Described as above.

The target of assay [3] is T3, RasGAP^232(mut) (RasGAP^232 with R398E/K400E in the C-SH2 domain) (human, UniProt P20936 174-444, C236S | C261S | C372S | C402S | R398E | K400E).
T3 construct: p120RasGAP, human, UniProt P20936, residues 174-444; Made by site-directed mutagenesis of RasGAP^232, which holds the four cysteine to serine mutations; also called C-SH2 mutant; source: E. coli Rosetta (DE3), purified (same protocol as the WT counterpart); not shown: His6, N-terminal, cleaved
T3 sequence (looked up): T1 chain with R225E, K227E
The description is as above.

The target in assay [4] is T4, RasGAP^232 (p120RasGAP N-SH2, SH3 and C-SH2 domains, residues 174-444) (human, UniProt P20936 174-444, C236 | C261 | C372 | C402).
T4 construct: p120RasGAP (RASA1), human, UniProt P20936, residues 174-444 (N-SH2, SH3, C-SH2), with four cysteine to serine mutations; also called WT RasGAP^232; apo RasGAP^232; source: E. coli Rosetta (DE3), purified (Ni-NTA, TEV cleavage, anion exchange, SEC)
T4 sequence (looked up): T1 chain
Nature of the assay: ITC; protein in the 190 ul sample cell, titrated 20 times with 2.5 ul peptide from the syringe; 20 mM Tris pH 8, 250 mM NaCl; Nano ITC (TA Instruments); independent binding model.

Assay [5] has as its target T5, RasGAP^2(mut)32 (RasGAP^232 with R207A in the N-SH2 domain) (human, UniProt P20936 174-444, R207 to alanine | C236 | C261 | C372 | C402).
T5 construct: p120RasGAP (RASA1), human, UniProt P20936, residues 174-444, mutant of RasGAP^232 in the N-SH2 domain; also called N-SH2 mutant; source: E. coli Rosetta (DE3), purified (same protocol as the WT: Ni-NTA, TEV cleavage, anion exchange, SEC)
T5 sequence (looked up): T1 chain with R34A
The description is as above.

Assay [6] concerns the target T6, RasGAP^232(mut) (RasGAP^232 with R398E/K400E in the C-SH2 domain) (human, UniProt P20936 174-444, R398E | K400E | C236 | C261 | C372 | C402).
T6 construct: p120RasGAP (RASA1), human, UniProt P20936, residues 174-444, mutant of RasGAP^232 in the C-SH2 domain; also called C-SH2 mutant; source: E. coli Rosetta (DE3), purified (same protocol as the WT: Ni-NTA, TEV cleavage, anion exchange, SEC)
T6 sequence (looked up): T1 chain with R225E, K227E
Described as above.

Changes are numbered by the printed parent chain. Where “and” joins values, the source holds several entries; their conditions need not be identical. Identical values can stand only once. Square brackets hold non-standard residues; d marks the D form. pY = N[C@@H](Cc1ccc(OP(=O)(O)O)cc1)C(=O)O

B1: doubly phosphorylated EphB4 peptide (residues 586-602) (peptide)
peptide: Ac-GTKV[pY]IDPFT[pY]EDPNEA-NH2
SMILES: CC[C@H](C)[C@H](NC(=O)[C@H](Cc1ccc(OP(=O)(O)O)cc1)NC(=O)[C@@H](NC(=O)[C@H](CCCCN)NC(=O)[C@@H](NC(=O)CNC(C)=O)[C@@H](C)O)C(C)C)C(=O)N[C@@H](CC(=O)O)C(=O)N1CCC[C@H]1C(=O)N[C@@H](Cc1ccccc1)C(=O)N[C@H](C(=O)N[C@@H](Cc1ccc(OP(=O)(O)O)cc1)C(=O)N[C@@H](CCC(=O)O)C(=O)N[C@@H](CC(=O)O)C(=O)N1CCC[C@H]1C(=O)N[C@@H](CC(N)=O)C(=O)N[C@@H](CCC(=O)O)C(=O)N[C@@H](C)C(N)=O)[C@@H](C)O
notes: EphB4, UniProt P54760, juxtamembrane residues 586-602; also called pYpY EphB4; pYpYEphB4; source: synthetic peptide, bought: GenScript
With B1, in assay [1], the Kd is 1.3 µM and 1.5 µM and 2.4 µM and 2.7 µM; the “stoichiometry N” value is 0.9 and 1 and 1.1. Further, in assay [2], the Ka was 40000 M⁻¹ and 30000 M⁻¹ and 20000 M⁻¹; the dissociation constant (Kd) is 25 µM and 32 µM and 60 µM and 38 µM; the “stoichiometry N” value was 0.7 and 1 and 0.9 and 1.2. Moreover, in assay [3], the Ka was 900000 M⁻¹ and 700000 M⁻¹ and 1e+06 M⁻¹; the dissociation constant (Kd) is 1.1 µM and 1.5 µM and 1 µM and 0.8 µM; the “stoichiometry N” value was 0.8 and 0.7.

B2: doubly phosphorylated Dok1 peptide (residues 291-322) (peptide)
peptide: Ac-SPPAL[pY]AEPLDSLRIAPCPSQDSL[pY]SDPLDST-NH2
SMILES: CC[C@H](C)[C@H](NC(=O)[C@H](CCCNC(=N)N)NC(=O)[C@H](CC(C)C)NC(=O)[C@H](CO)NC(=O)[C@H](CC(=O)O)NC(=O)[C@H](CC(C)C)NC(=O)[C@@H]1CCCN1C(=O)[C@H](CCC(=O)O)NC(=O)[C@H](C)NC(=O)[C@H](Cc1ccc(OP(=O)(O)O)cc1)NC(=O)[C@H](CC(C)C)NC(=O)[C@H](C)NC(=O)[C@@H]1CCCN1C(=O)[C@@H]1CCCN1C(=O)[C@H](CO)NC(C)=O)C(=O)N[C@@H](C)C(=O)N1CCC[C@H]1C(=O)N[C@@H](CS)C(=O)N1CCC[C@H]1C(=O)N[C@@H](CO)C(=O)N[C@@H](CCC(N)=O)C(=O)N[C@@H](CC(=O)O)C(=O)N[C@@H](CO)C(=O)N[C@@H](CC(C)C)C(=O)N[C@@H](Cc1ccc(OP(=O)(O)O)cc1)C(=O)N[C@@H](CO)C(=O)N[C@@H](CC(=O)O)C(=O)N1CCC[C@H]1C(=O)N[C@@H](CC(C)C)C(=O)N[C@@H](CC(=O)O)C(=O)N[C@@H](CO)C(=O)N[C@H](C(N)=O)[C@@H](C)O
notes: Dok1, UniProt Q99704, residues 291-322; also called pYpY Dok1; pYpYDok1; source: synthetic peptide, bought: GenScript
As to B2, in assay [1], the Ka is 6.3e+07 M⁻¹ and 2.1e+07 M⁻¹ and 4.3e+07 M⁻¹ and 4e+07 M⁻¹; the Kd was 0.016 µM and 0.047 µM and 0.023 µM; the “stoichiometry N” value is 0.9 and 0.8 and 0.7.

B3: doubly phosphorylated EphB4 peptide (residues 586-602, pY590 and pY596) (peptide)
peptide: Ac-GTKV[pY]IDPFT[pY]EDPNEA-NH2
SMILES: CC[C@H](C)[C@H](NC(=O)[C@H](Cc1ccc(OP(=O)(O)O)cc1)NC(=O)[C@@H](NC(=O)[C@H](CCCCN)NC(=O)[C@@H](NC(=O)CNC(C)=O)[C@@H](C)O)C(C)C)C(=O)N[C@@H](CC(=O)O)C(=O)N1CCC[C@H]1C(=O)N[C@@H](Cc1ccccc1)C(=O)N[C@H](C(=O)N[C@@H](Cc1ccc(OP(=O)(O)O)cc1)C(=O)N[C@@H](CCC(=O)O)C(=O)N[C@@H](CC(=O)O)C(=O)N1CCC[C@H]1C(=O)N[C@@H](CC(N)=O)C(=O)N[C@@H](CCC(=O)O)C(=O)N[C@@H](C)C(N)=O)[C@@H](C)O
notes: EphB4 juxtamembrane region, UniProt P54760, residues 586-602; also called pYpY EphB4; pYpYEphB4; source: synthetic peptide, bought: GenScript
Consider B3, for which, in assay [4], the affinity, expressed as Kd, was 2 ± 0.7 µM; the dH is -5.74 ± 0.717 kcal/mol; the “stoichiometry N” value came to 1 ± 0.1. Besides, in assay [5], binding was put at a Kd of 40 ± 20 µM, the dH was -7.89 ± 1.43 kcal/mol and the “stoichiometry N” value is 0.9 ± 0.2. In assay [6], the Kd was 1 ± 0.3 µM, the dH was -5.98 ± 0.239 kcal/mol and the “stoichiometry N” value came to 0.75 ± 0.02.
